Source: article PMC10602924

Key:
Assay in all cases: EMSA
SerRS WT = SerRS WT (human, UniProt P49591 1-514)
SerRS deltaUNE-S = SerRS deltaUNE-S (human, UniProt P49591 1-469)
SerRS T429A = SerRS T429A (human, UniProt P49591 1-514, T429A)
SerRS T429A, sequence (P49591 whole entry T429A): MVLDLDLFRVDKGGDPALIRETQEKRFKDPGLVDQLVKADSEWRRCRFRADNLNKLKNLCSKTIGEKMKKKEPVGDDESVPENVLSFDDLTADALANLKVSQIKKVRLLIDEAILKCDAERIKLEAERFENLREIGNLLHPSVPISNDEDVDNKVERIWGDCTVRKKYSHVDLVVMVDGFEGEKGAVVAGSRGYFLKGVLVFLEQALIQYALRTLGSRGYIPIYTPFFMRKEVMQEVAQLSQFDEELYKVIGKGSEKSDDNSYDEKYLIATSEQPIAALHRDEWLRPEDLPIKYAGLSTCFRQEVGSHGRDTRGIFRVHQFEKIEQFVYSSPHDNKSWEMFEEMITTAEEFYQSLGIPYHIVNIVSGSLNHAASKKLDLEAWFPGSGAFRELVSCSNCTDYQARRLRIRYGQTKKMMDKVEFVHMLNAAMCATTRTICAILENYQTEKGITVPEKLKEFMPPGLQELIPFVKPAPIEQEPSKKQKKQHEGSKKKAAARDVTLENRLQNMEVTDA

SerRS WT, sequence (P49591 whole entry): as the sequence (P49591 whole entry T429A) above, with A429T counted along it
SerRS deltaUNE-S, sequence (P49591 1-469, stated change not applied): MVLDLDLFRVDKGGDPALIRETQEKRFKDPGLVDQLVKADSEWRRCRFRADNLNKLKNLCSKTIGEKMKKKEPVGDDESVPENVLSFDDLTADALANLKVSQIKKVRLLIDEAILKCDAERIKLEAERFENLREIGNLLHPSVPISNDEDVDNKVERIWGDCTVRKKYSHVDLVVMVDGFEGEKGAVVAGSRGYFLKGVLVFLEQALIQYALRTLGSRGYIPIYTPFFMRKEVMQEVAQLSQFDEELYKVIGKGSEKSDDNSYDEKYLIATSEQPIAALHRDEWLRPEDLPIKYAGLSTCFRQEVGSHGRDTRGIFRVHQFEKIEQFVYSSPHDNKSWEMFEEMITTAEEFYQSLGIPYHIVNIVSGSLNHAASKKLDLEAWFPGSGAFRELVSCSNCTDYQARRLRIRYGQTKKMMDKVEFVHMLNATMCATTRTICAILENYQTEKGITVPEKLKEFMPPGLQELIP

| Binder | binding result (SerRS WT) | binding result (SerRS deltaUNE-S) | binding result (SerRS T429A) |
| --- | --- | --- | --- |
| UCAAAUGGAGCACCUGUUCCAUAUGUACGA (ssRNA) [MSH2 S612X RNA] | binds |  |  |
| VEGFA 3'UTR WT RNA (ssRNA) RNA: UGAGCCGGGCAGGAGGAAGGAGCCUCCCUCAGGGUUUCGGGAACCAGAUCUCUCACCAGGAAAGACUGA | binds | no binding | binds |
